# Assay results: paper PMC7460627 (International Journal of Molecular Sciences, 2020)
# Ends that are not written are not given here.
# T1: lettuce eukaryotic translation initiation factor 4E, eIF4E^0 (susceptible cultivar) (lettuce, UniProt A0A2J6L8Y7 1-235)
# T1 chain: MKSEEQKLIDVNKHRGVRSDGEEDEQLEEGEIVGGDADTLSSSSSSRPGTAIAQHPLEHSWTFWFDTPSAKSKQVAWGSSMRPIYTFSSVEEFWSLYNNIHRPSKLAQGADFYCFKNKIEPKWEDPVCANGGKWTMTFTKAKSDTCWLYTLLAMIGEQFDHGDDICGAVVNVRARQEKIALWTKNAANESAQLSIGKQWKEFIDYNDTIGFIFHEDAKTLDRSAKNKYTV
# Tests used:
# [1] = test system: lettuce eIF4E (all forms); experiment: Comparison of VPg / m7GTP binding to eIF4E forms (competition, overall affinity)
# Text: (§1) For optical characteristics of the instrument, see [36].
# [2] = molecular target: lettuce eIF4E^1 (resistant cultivar; ∆(108–110)H and A186S) (lettuce); experiment: other fluorescence titration; as a1, but eIF4E 0.5 µM pre-incubated with m7GTP 2 µM prior to titration by VPg; 25 °C
# [3] = molecular target: lettuce eIF4E^2 (resistant cultivar; A70P) (lettuce); experiment: as above
# [4] = molecular target: lettuce eukaryotic translation initiation factor 4E, eIF4E^0 (susceptible cultivar) (lettuce); experiment: as above
# [5] = molecular target: lettuce eIF4E N-terminus-deleted form, eIF4E^0 [∆1–46] (lettuce); experiment: other fluorescence titration; steady state decrease of eIF4E tryptophan intrinsic fluorescence upon titration by VPg or VPg peptide; 25 °C, 20 mM HEPES pH 7.5, 0.25 mM NaCl, 1 mM DTT
# [6] = molecular target: lettuce eIF4E^1 (resistant cultivar; ∆(108–110)H and A186S) (lettuce); experiment: as above
# [7] = molecular target: lettuce eIF4E^2 (resistant cultivar; A70P) (lettuce); experiment: as above
# [8] = molecular target: T2, lettuce eIF4E (Lactuca sativa, UniProt A0A2J6L8Y7); experiment: Peptide affinity from eIF4E intrinsic fluorescence decay; format: binding
# T2 construct: to obtain untagged full-length eIF4E and eIF4E∆(1–46); made in house; host or cells: E. coli BL21-AI
# Text: as §1
# [9] = molecular target: T3, eIF4E (Lactuca sativa, UniProt A0A2J6L8Y7); experiment: Stopped-flow kinetics, quenching of eIF4E tryptophan fluorescence; format: binding, lettuce
# T3 construct: to obtain untagged full-length eIF4E and eIF4E∆(1–46); made in house; host or cells: E. coli BL21-AI
# Method: We hypothesized that the 107–120 region could modulate the mechanism of association, the details of which cannot be grasped through equilibrium thermodynamics. Consequently, fast kinetics measurement were performed by stopped flow to compare VPg88–111 and VPg88–120 association with eIF4E (Figure 3).
# (A) The quenching of eIF4E tryptophan fluorescence was monitored after mixing 0.3 µM eIF4E with 1 µM VPg88–111 (final concentration). The excitation wavelength was 283 nm. Inset, plots of 1/kobs versus 1/[peptide] at 2.5, 5, 7.5 and 10 µM peptide concentration. VPg88–111 open circles, VPg88–120, open triangles. (B) Stopped-flow traces of VPg88–111*–eIF4E complex formation acquired at 520 nm upon excitation at 480 nm. VPg88–111*: doubly labeled fluorescent derivative of VPg88–111.
# The eIF4E tryptophan fluorescence decrease concomitant to association was monitored for several peptide concentrations (Figure S3). A single exponential model fitted satisfactorily with the experimental data allowing the determination of kobs, the apparent constant of the complex formation.
# as §1
# [10] = molecular target: lettuce eukaryotic translation initiation factor 4E, eIF4E^0 (susceptible cultivar) (lettuce); experiment: other fluorescence titration; steady state decrease of eIF4E tryptophan intrinsic fluorescence upon titration by VPg or VPg peptide; 25 °C, 20 mM HEPES pH 7.5, 0.25 mM NaCl, 1 mM DTT
# [11] = molecular target: lettuce eukaryotic translation initiation factor 4E, eIF4E^0 (susceptible cultivar) (lettuce); experiment: stopped-flow fluorescence kinetics; quenching of eIF4E tryptophan fluorescence after mixing 0.3 µM eIF4E with peptide (1 µM; 2.5, 5, 7.5 and 10 µM); excitation 283 nm; single exponential fit, kobs
# [12] = molecular target: VPg_(88–111)*, doubly labeled fluorescent derivative of VPg_(88–111) (lettuce mosaic virus (LMV strain AF199)); experiment: other fluorescence titration; steady state titration by eIF4E of 250 nM VPg_(88–111)*, read by the AEDANS to fluorescein resonance energy transfer within the peptide; AEDANS excited at 337 nm; simple bimolecular equilibrium model; 25 °C, 20 mM HEPES pH 7.5, 0.25 mM NaCl, 1 mM DTT
# [13] = molecular target: T1, lettuce eukaryotic translation …
molecule,measurement,setting,value
Cn1c[n+]([C@@H]2O[C@H](COP(=O)([O-])OP(=O)(O)OP(=O)(O)O)[C@@H](O)[C@H]2O)c2nc(N)[nH]c(=O)c21 [m7GTP],competition between VPg and m7GTP,[1],compete for their binding to eIF4E
LMV VPg from the non-resistance-breaking strain (LMV0) (natural protein),KD with m7GTP,[2],632 nM
same,KD with m7GTP,[3],703 nM
same,KD with m7GTP,[4],746 nM
same,Kd,[5],276 nM
same,Kd,[6],340 nM
same,Kd,[7],288 nM
LSGGEIESEHMRSG [VPg107–120],Kd,[8],852 ± 57 nM
VFSDIGLVQDAFGKERLKLLSGGE [VPg88–111],"affinity for eIF4E, in words",[8]; VPg88–111 versus VPg88–120,comparable affinities
same,dependence of 1/kobs or kobs on peptide concentration,"[9]; 0.3 µM eIF4E, 2.5, 5, 7.5 and 10 µM peptide, single exponential fit","gave a straight line, featuring the pseudo first order nature of the association depending on ligand concentration"
same,kinetic model of complex formation,"[9]; stopped flow, eIF4E tryptophan quenching",one-step process
VFSDIGLVQDAFGKERLKLLSGGEIESEHMRSG [VPg88–120],Kd,[8],67 ± 7 nM
VPg_(88–111) synthetic peptide,Kd,[10],72 nM
VPg_(88–120) synthetic peptide,Kd,[10],67 nM
same,"k2 (second step of the two-step model, conformational transition of the bound peptide)",[11],33 s⁻¹
VPg_(107–120) synthetic peptide,Kd,[10],852 nM
"lettuce eukaryotic translation initiation factor 4E, eIF4E^0 (susceptible cultivar) (from UniProt A0A2J6L8Y7 1-235) (natural protein)",Kd,[12],63 nM
LMV VPg from the non-resistance-breaking strain (LMV0) (natural protein) GKGKRQRQKLRYRQARDNKVGIEVYGDDATMEHYFGAAYTEKGKKSGKTKGMGTKNRRFVNMYGYNPEDFSFIRFLDPLTGKTMDEQVFSDISLVQDAFSKERLKLLSEGEIESEHMRNGIRAYLVKNLTTAALEIDMTPHNSCQLGAKTNNIAGYVDREYELRQTGEARVVAPALIPKDNPITDEDIPVKHE,Kd,[13],202 nM
whole VPg from LMV-AF199 strain (natural protein) GKGKRQRQKLRYRQARDNKVGIEVYGDDATMEHYFGAAYTEKGKKSGKTKGMGTKNRKFVNMYGYNPEDFSFIRFLDPLTGKTMDEQVFSDIGLVQDAFGKERLKLLSGGEIESEHMRSGIRAYLVKNLTTAALEIDMTPHNSCQLGIKTNNIAGFVDREYELRQTGEARVVAPALIPKDNPITDEDIPVKHE,Kd,[13],82 nM
